To fix the notation:
B1: FtsZ (natural protein, E. coli, UniProt P0A9A6 1-383, looked up)
chain: MFEPMELTNDAVIKVIGVGGGGGNAVEHMVRERIEGVEFFAVNTDAQALRKTAVGQTIQIGSGITKGLGAGANPEVGRNAADEDRDALRAALEGADMVFIAAGMGGGTGTGAAPVVAEVAKDLGILTVAVVTKPFNFEGKKRMAFAEQGITELSKHVDSLITIPNDKLLKVLGRGISLLDAFGAANDVLKGAVQGIAELITRPGLMNVDFADVRTVMSEMGYAMMGSGVASGEDRAEEAAEMAISSPLLEDIDLSGARGVLVNITAGFDLRLDEFETVGNTIRAFASDNATVVIGTSLDPDMNDELRVTVVATGIGMDKRPEITLVTNKQVQQPVMDRYQQHGMAPLTQEQKPVAKVVNDNAPQTAKEPDYLDIPAFLRKQAD
modifications: Alexa Fluor 488 or Alexa Fluor 647 on amino groups, only in the tracer fraction (below 1 mole of dye per mole of protein)
notes: Cell division GTPase FtsZ, E. coli; The methods name no species for the construct; Oligomers without GTP (GDP form), polymers with GTP; also called FtsZ-Alexa 647; source: purified as described in [6,22,25]

Data set [1] concerns the molecule itself. The experiment in a line: fluorescence polarisation; anisotropy with time after addition of GTP; 5 uM FtsZ with 50 nM FtsZ-Alexa 488 as tracer; solution buffer with 300 mM KCl; 27 C. A general note: Polarisation of emitted light reports the rotation of a fluorescent probe.
Data set [2] deals with the molecule itself. In words: fluorescence correlation spectroscopy; no GTP (FtsZ oligomers); solution buffer with 100 mM KCl; 10 nM ZapA-Alexa 488 or SBS-Alexa 488 as tracer; 5 uM ZapA, 5 uM SlmA, 1 uM SBS, 50 or 20 uM FtsZ.
The data set “FtsZ” deals with B1. In words: fluorescence correlation spectroscopy; FtsZ polymers: 10 uM FtsZ, 2 mM GTP and enzymatic GTP regeneration system; 10 nM labelled tracer; solution buffer. Conditions: both partners purified.

For B1, in data set [1], the binding result is “binds”.

B2: ZapA (natural protein, E. coli, UniProt P0ADS2 1-109, looked up)
chain: MSAQPVDIQIFGRSLRVNCPPDQRDALNQAADDLNQRLQDLKERTRVTNTEQLVFIAALNISYELAQEKAKTRDYAASMEQRIRMLQQTIEQALLEQGRITEKTNQNFE
modifications: Alexa Fluor 488 on amino groups, only in the tracer fraction (below 1 mole of dye per mole of protein)
notes: Cell division protein ZapA, E. coli; Dimer-tetramer equilibrium that depends on salt; source: BL21(DE3) strain carrying plasmid pEJR029b, purified
The term stoichiometry N denotes the number of molecules, sites or subunits per partner or assembly. On to B2, for which the “stoichiometry N” value in data set [2] stood at 4. In the data set with FtsZ, the binding result was “binds”.

These data come from publication PMC9974302, “Bacterial division ring stabilizing ZapA versus destabilizing SlmA modulate FtsZ switching between biomolecular condensates and polymers” (Open Biology, 2023).
